Assay results: patent US20120308574A1 (HANWHA CHEMICAL, published 2012)

T1: mVCAM-1-Fc chimera (R&D systems, Cat# 643-VM) (mouse, UniProt P29533 25-698)
T1 construct: Bought product; also called Mouse VCAM-1 antigen; mouse antigen; Fc part of the bought chimera not given
T1 sequence (looked up): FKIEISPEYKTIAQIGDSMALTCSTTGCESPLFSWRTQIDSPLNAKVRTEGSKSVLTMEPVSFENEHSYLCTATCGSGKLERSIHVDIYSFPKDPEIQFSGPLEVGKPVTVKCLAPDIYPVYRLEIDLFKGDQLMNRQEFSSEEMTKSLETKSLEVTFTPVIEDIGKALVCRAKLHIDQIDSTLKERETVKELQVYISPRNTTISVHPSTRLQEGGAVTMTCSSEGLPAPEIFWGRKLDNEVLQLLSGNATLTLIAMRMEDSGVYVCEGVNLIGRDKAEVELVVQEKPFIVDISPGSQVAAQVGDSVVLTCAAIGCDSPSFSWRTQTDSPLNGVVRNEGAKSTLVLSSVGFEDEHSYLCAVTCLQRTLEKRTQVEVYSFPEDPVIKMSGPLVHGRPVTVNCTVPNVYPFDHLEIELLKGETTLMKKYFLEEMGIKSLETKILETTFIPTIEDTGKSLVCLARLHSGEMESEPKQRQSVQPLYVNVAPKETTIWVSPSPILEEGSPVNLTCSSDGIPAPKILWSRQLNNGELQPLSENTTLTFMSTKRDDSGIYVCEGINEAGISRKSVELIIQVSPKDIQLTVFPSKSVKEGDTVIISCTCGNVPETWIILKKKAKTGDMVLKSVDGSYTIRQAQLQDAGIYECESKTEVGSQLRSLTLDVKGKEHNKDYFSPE

T2: recombinant human VCAM-1 domain 1~7/Fc chimera (R&D, 862-VC) (human, UniProt P19320 25-698)
T2 construct: domain: domain 1~7; Bought product; also called VD7; hVCAM-Fc-chimera; Fc part of the bought chimera not given
T2 sequence (looked up): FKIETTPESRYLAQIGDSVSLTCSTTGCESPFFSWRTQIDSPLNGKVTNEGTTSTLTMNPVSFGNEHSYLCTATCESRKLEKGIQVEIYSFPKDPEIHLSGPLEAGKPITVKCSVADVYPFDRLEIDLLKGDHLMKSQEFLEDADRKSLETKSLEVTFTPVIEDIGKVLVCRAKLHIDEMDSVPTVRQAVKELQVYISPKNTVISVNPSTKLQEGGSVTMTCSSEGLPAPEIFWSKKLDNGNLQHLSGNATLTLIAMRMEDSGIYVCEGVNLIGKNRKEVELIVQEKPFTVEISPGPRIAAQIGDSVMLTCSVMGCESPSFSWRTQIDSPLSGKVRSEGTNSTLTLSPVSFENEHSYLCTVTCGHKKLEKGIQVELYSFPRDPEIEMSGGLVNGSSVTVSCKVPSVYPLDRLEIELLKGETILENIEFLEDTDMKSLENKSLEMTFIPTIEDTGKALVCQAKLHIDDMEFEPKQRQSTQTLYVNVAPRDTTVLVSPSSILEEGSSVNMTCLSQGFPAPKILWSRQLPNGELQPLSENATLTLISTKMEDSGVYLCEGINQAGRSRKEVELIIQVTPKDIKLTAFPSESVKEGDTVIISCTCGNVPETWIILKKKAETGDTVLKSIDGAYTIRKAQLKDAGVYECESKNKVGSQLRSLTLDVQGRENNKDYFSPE

T3: recombinant human VCAM-1 (Cat. No. 809-VR-200, R&D systems) (human, UniProt P19320 25-698, limits assumed)
T3 sequence (looked up): T2 sequence (looked up)

B1: anti VCAM-1 human monoclonal antibody 4B (antibody, V domains shown)
VH: QMQLVESGGGLVQPGGSLRLSCAASGFTFSSYGVSWVRQAPGKGLEWVSRISGSGGSTYYADSVKGRFTISRDNSKSTLYLQMNSLRAEDTAVYYCARPIFYGGNSAFDSWGQGTLVTVSS
VL: QLVLTQPPSVSAAPGQKVTISCSGSSSNIGNNFVSWYQHLPGTAPKLLIYDNNKRPSGIPDRFSGSKSGTSATLGIAGLQTGDDADYYCGTWDSSLSAYVFGTGAKVTVL
notes: Tested as full IgG converted from an scFv phage clone and expressed in CHO-S (about 55 kDa heavy chain, about 25 kDa light chain)
B2: anti VCAM-1 human monoclonal antibody 7C (antibody, V domains shown)
VH: QVQLVESGGGVVQPGGSLRLSCAASGFTFDDYAMHWVRQAPGKGLEWVSLISGDGTDTYYADSVKGRFTISRDNSKNSLYLQMNSLRAEDTAVYYCAKRGYSYLGALDGWGQGTKITVSS
VL: QLVLTQSPSVSVAPGQTARITCGGDNIGRESVHWYQQKAGQAPVLVIYYDSDRPSGIPERFSGSNSGNTATLTISWVDAGDEADYYCQVWDSSSDHVVFGGGTKLTVL
B3: anti VCAM-1 human monoclonal antibody 7H (antibody, V domains shown)
VH: QMQLVQSGGDLVKPGESLRLSCAASGFTFNDAWMTWVRQPPGKGLEWVGRIKSTTDGGTTNYAAPVEGRFTISRDDSKNTLYLEMNSLRAEDTAVYYCARIPLFNHDSGGYHGAFDIWGQGTMVTVSS
VL: DIQMTQSPSSLAVSLGERATINCKSSQSVLYSSNNKNYLAWYQQKPGQPPKLLIYWASTRESGVPDRFSGSGSGTDFTLTISSLQPEDFASYYCQESYSAPYTFGQGTKVEIKR

Legend:
[1] = target: T1, mVCAM-1-Fc chimera (R&D systems, Cat# …); assay: SPR (BIACORE), VCAM-1/Fc immobilised on CM5 chip, antibody as analyte
Method: (§1) For ligand immobilization to the sensor chip CM5, the chip should be first activated with a mixture of N-hydroxysuccinimide (NHS) and […] (EDC) (Amine Coupling Kit, BR-1000-50) to prepare a NHS-ester-activated chip surface being highly reactive to an amino group. 1 mg/Ml of ligand to be immobilized was diluted in 97 μl of each sodium acetate solution (varying within the pH range from 4.0 to 5.5) at a dilution ratio of 3/100, and then applied at a flow rate of 10 μl/min for about 3 min (as a negative control, the ligand was diluted using a running buffer, HBS-EP buffer (BIACORE AB, Sweden) in the same manner). In order to immobilize the ligand at a predetermined value target RU (resonance unit), serial injection was carried out automatically, until reaching target RU. […] The final RU was determined by an immobilization report which provides a difference in RU values before and after injection of ethanolamine.
(§2) A flow cell2-flow cell mode provided by BIACORE instrument was employed in this experiment in order to remove non-specific binding. […] Through this procedure, an association/dissociation curve of the corresponding antigen and antibody was obtained, and an association/dissociation constant KD was calculated by BIAevaluation program (BIACORE AB, Sweden), as shown in the following Table 2.

[2] = target: T2, recombinant human VCAM-1 domain 1~7/Fc …; assay: SPR (BIACORE), VCAM-1/Fc immobilised, antibody as analyte
Method: as §1, §2

[3] = target: T3, recombinant human VCAM-1 (Cat. No. …); assay: cell-based or functional assay
[4] = target: T2, recombinant human VCAM-1 domain 1~7/Fc …; assay: SPR (BIACORE), VCAM-1/Fc immobilised on CM5 chip, antibody as analyte, 1:1 binding model
Method: (§3) 1 mg/Ml of ligand to be immobilized was diluted in 97 μl of each sodium acetate solution (varying within the pH range from 4.0 to 5.5) at a dilution ratio of 3/100, and then applied at a flow rate of 10 μl/min for about 3 min (as a negative control, the ligand was diluted using a running buffer, HBS-EP buffer (BIACORE AB, Sweden) in the same manner). In order to immobilize the ligand at a predetermined value target RU (resonance unit), serial injection was carried out automatically, until reaching target RU. The ligand-immobilized chip was inactivated by injection of 1M ethanolamine (Amine Coupling Kit, BR-1000-50) at a flow rate of 10 μl/min for about 3 min. The final RU was determined by an immobilization report which provides a difference in RU values before and after injection of ethanolamine.
(§4) A flow cell2-flow cell mode provided by BIACORE instrument was employed in this experiment in order to remove non-specific binding. At this time, a recombinant VCAM1/Fc antigen was immobilized as a ligand to the flow cell2, and BSA (Bovine Serum Albumin) was immobilized to the flow cell. Then, each of the anti VCAM-1 antibodies 4B, 7C and 7H as the analyte were applied to flow cell 1 and 2, simultaneously. The sensogram RU of flow cell was automatically subtracted from the sensogram RU of flow cell2. Subsequently, the analytes were applied at a flow rate of 30 μl/min for about 3 min, and then dissociation was induced for 120 sec. Through this procedure, an association/dissociation curve of the corresponding antigen and antibody was obtained, and an association/dissociation constant KD was calculated by BIAevaluation program (BIACORE AB, Sweden), as shown in the following Table 2.
(§5) The above Table 2 represents the binding capacity or affinity of human and mouse VCAM-1 antigen-specific anti VCAM-1 human monoclonal antibodies to antigen, and a protein affinity analyzer, BIACORE (BIACORE AB, Sweden) was used to analyze a species specific antigen-antibody affinity to the biologically different species, human and mouse antigens. The affinity constant KD value of corresponding antigen-antibody was calculated in a 1:1 binding mode.

[5] = target: T1, mVCAM-1-Fc chimera (R&D systems, Cat# …); assay: as above
Method: as §3, §4, §5

Binder | binding result [1] | Kd [2] [nM] | inhibition of adhesion of fluorescence-labelled U937 leukocytes to coated human VCAM-1 (reduction in fluorescence intensity) [3] [%] | Kd [4] [nM] | Kd [5] [nM]
B1 | no binding | ~1 | 80 | 0.5 | –
B2 | – | – | 90 | 38.8 | 36.9
B3 | – | – | 90 | 5.44 | 10.7
